Where two headings read alike, the source gives them in different places.
B1: GLP-1(A8G/G22E/R36S)-Fn8-COL18NC1-20 (ligand)
chain: HGEGTFTSDVSSYLEEQAAKEFIAWLVKGSGGGGSGGAVPPPTDLRFTNIGPDTMRVTWAPPPSIDLTNFLVRYSPVKNEEDVAELSISPSDNAVVLTNLLPGTEYVVSVSSVYEQHESTPLRGRQKTGGGGGSGGGGSGGGGSGGGGSGASSGVRLWATRQAMLGQVHEVPEGWLIFVAEQEELYVRVQNGFRKVQLEARTPLPRG
B2: GLP-1(A8G/G22E/R36S)-Fn8-COL18NC1-30 (ligand)
chain: HGEGTFTSDVSSYLEEQAAKEFIAWLVKGSGGGGSGGAVPPPTDLRFTNIGPDTMRVTWAPPPSIDLTNFLVRYSPVKNEEDVAELSISPSDNAVVLTNLLPGTEYVVSVSSVYEQHESTPLRGRQKTGGGGGSGGGGSASSASTGGPSGGGGSGGGGSGASSGVRLWATRQAMLGQVHEVPEGWLIFVAEQEELYVRVQNGFRKVQLEARTPLPRG
B3: GLP-1(A8G/G22E/R36S)-Fn8-COL18NC1-54 (ligand)
chain: HGEGTFTSDVSSYLEEQAAKEFIAWLVKGSGGGGSGGAVPPPTDLRFTNIGPDTMRVTWAPPPSIDLTNFLVRYSPVKNEEDVAELSISPSDNAVVLTNLLPGTEYVVSVSSVYEQHESTPLRGRQKTGGGGGSGGGGSTASSASTGGPSGGGGSGGGGSAPSSGSTSGGTAAGGGGSGGGGSGASSGVRLWATRQAMLGQVHEVPEGWLIFVAEQEELYVRVQNGFRKVQLEARTPLPRG
B4: GLP-1-Fn8-COL18NC1: fusion of GLP-1, Fn8 and COL18NC1; SEQ ID NO: 2; abbreviated NC1 in Table 5 (protein)
chain: HAEGTFTSDVSSYLEGQAAKEFIAWLVKGRGGGGSGGGGSAVPPPTDLRFTNIGPDTMRVTWAPPPSIDLTNFLVRYSPVKNEEDVAELSISPSDNAVVLTNLLPGTEYVVSVSSVYEQHESTPLRGRQKTGGGGSGGGASSGVRLWATRQAMLGQVHEVPEGWLIFVAEQEELYVRVQNGFRKVQLEARTPLPRG

Experiments:
[1] = in monkeys, literature [6]; cited from earlier work
[2] = target: TNF-alpha; assay: cell-based or functional assay
[3] = target: human GLP-1 receptor (GLP-1R) (human, UniProt P43220 24-463); assay: cell-based or functional assay
[4] = analytical gel filtration (Superdex200), apparent molecular weight; type: physicochemical
Excerpt: In the fusion protein of GLP-1(A8G/G22E)-Fn8-COL18NC1 described in example 4, the flexible unstructured linker between Fn8 and COL18NC1 contains six residues (GGGSGG; SEQ ID NO:89). To generate the flexible un-structured linkers with different lengths, we have synthesized the genes GLP-1(A8G/G22E/R36S)-Fn8-COL18NC1-20, GLP-1(A8G/G22E/R36S)-Fn8-COL18NC1-30, GLP-1(A8G/G22E/R36S)-Fn8-COL18NC1-54 and GLP-1(A8G/G22E/R36S)-Fn8-COL18NC1-60. In these genes, the length of the flexible unstructured polypeptide linker between Fn8 and COL18NC1 contained 20, 30, 54 and 60 residues, respectively. The protein sequences of GLP-1(A8G/G22E/R36S)-Fn8-COL18NC1-20, GLP-1(A8G/G22E/R36S)-Fn8-COL18NC1-30, GLP-1(A8G/G22E/R36S)-Fn8-COL18NC1-54 and GLP-1(A8G/G22E/R36S)-Fn8-COL18NC1-60 are listed as SEQ ID NO:8-11. The synthetic genes of GLP-1(A8G/G22E/R36S)-Fn8-COL18NC1-20, GLP-1(A8G/G22E/R36S)-Fn8-COL18NC1-30, GLP-1(A8G/G22E/R36S)-Fn8-COL18NC1-54 and GLP-1(A8G/G22E/R36S)-Fn8-COL18NC1-60 were grafted to the pET29b by NdeI and XhoI for protein expressions. The expression and purification of these fusion proteins were carried out using similar protocols described in example 3. To estimate the hydrodynamic radius and/or the Rg of the fusion proteins, the purified proteins were loaded on an analytical gel filtration column Superdex200 (GE Healthcare).
Moreover, the flexible unstructured linker between the therapeutic polypeptide and the scaffold protein may adjust the hydrodynamic radius and/or the Rg of the fusion molecule in a tunable manner.
The apparent molecular weights of the fusion proteins were estimated by use of an analytical gel filtration column Superdex-200 (GE Healthcare) mounted on the AKTA FPLC system (GE Healthcare). The purified fusion proteins GLP-1-Fn8, GLP-1-Fn8-COL18NC1, GLP-1(A8G/G22E/R36G)-Fn8-p246-COL18NC1 were loaded on the Superdex200 column. GLP-1-Fn8 is a fusion protein of GLP-1 and Fn8 and contains the first 144 amino acid residues of the fusion protein GLP-1-Fn8-COL18NC1 (SEQ ID NO:2). […] The genuine molecular weights for the fusion proteins GLP-1-Fn8 monomer, GLP-1-Fn8-COL18NC1 trimer, and GLP-1(A8G/G22E/R36G)-Fn8-p246-COL18NC1 trimer were ˜15 Kd, 65 Kd and 123Kd, respectively.

[5] = pharmacokinetics in Sprague-Dawley rats, sandwich ELISA (Example 6); type: in vivo; conditions: Sprague-Dawley rat, intraperitoneal, 0.66/0.72/0.75/0.78 mg/kg respectively
Description: To evaluate the pharmacokinetics profiles for the GLP-1 containing fusion proteins generated using the method of the invention, we purified GLP-1(A8G/G22E/R36S)-Fn8-COL18NC1, GLP-1(A8G/G22E/R36S)-Fn8-COL18NC1-20, GLP-1(A8G/G22E/R36S)-Fn8-COL18NC1-30, GLP-1(A8G/G22E/R36S)-Fn8-COL18NC1-54 in PBS buffer, pH 7.2. These fusion proteins were administered on Sprague-Dawley (SD) rats by intraperitoneal injections at the doses of 0.66 mg/kg, 0.72 mg/kg, 0.75 mg/kg, 0.78 mg/kg animal respectively. Blood samples were taken at various time points after injections such as 0-min, 30-min, 1-hour, 2-hour, 4-hour, 8-hour, 24-hour, 48-hour, 3-day, 4-day, 5-day. 7-day, 10-day. The serum samples were centrifuged and kept at −80° C. freezer.
(§1) The GLP-1 concentrations within the serum samples were examined by use of the sandwich ELISA method. The rabbit polyclonal antibody against human Fibronectin at the concentration of 3 ug/ml (Ab299, Abcam company) was coated on ELISA plate for 1 hour at room temperature. Then the plate was washed by PBST buffer three times and the wells were blocked by PBS with 10% FBS for 1 hour at room temperature. The plate was washed three times before the serum samples containing GLP-1 fusion proteins were added. The serum samples could be diluted to 20-10000 folds before use. The ELISA plate was incubated with the serum samples at room temperature for 1 hour and then washed by PBST buffer five times. Then mouse monoclonal against human GLP-1 peptide antibody (sc57510, Santa Cruz Biotechology) at the concentration of 1 ug/ml in PBST buffer was added to the wells. The plate was washed extensively after incubation of 1 hour at room temperature. The secondary antibody, […] HRP conjugated antibody (Beijing ZSGB-Bio company, ZB 5301), was added into the wells and the color was developed using TMB (3,3′,5,5′-tetramethylbenzidine, BD Biosciences, Cat 555214). The plate reader (Bio-Rad microplate reader Model 680) was utilized to obtain the OD450 readings. This method has been calibrated using purified proteins first.
The pharmacokinetics parameters were obtained by using the WinNonlin software (Table 3).

[6] = pharmacokinetics in SD rats, sandwich ELISA (Example 15); type: in vivo, SD (Sprague-Dawley) rats; conditions: SD rats, intraperitoneal, 5 nmol/kg
Description: To evaluate the pharmacokinetics profiles for the GLP-1 containing fusion proteins generated using the method of the invention, we purified the recombinant fusion proteins of GLP-1-Fn8-COL18NC1, GLP1(A8G/G22E/R36G)-Fn8-p246-COL18NC1 and GLP1(A8G/G22E/R36G)-Fn8-p285-COL18NC1 in PBS buffer, pH 7.2. These fusion proteins were administered into SD (Sprague-Dawley) rats by intraperitoneal injections at the dose of 5 nmol/kg for animals, respectively. Blood samples were taken at various time points after injections such as 0-min, 30-min, 1-hour, 2-hour, 4-hour, 6-hour, 8-hour, 24-hour, 48-hour, 3-day, 4-day, 5-day, 6-day and 7-day. The serum samples were centrifuged and kept at −80° C. freezer.
as §1, with “within the samples were” for “within the serum samples were”, “Santa Cruz Biotechnology) at the” for “Santa Cruz Biotechology) at the”
The pharmacokinetics parameters were obtained by using the WinNonlin software (Table 5).

ED50, block of the apoptosis of L-929 mouse fibroblast cells induced by TNF-alpha (0.25 ng/mL) in the presence of actinomycin D [2] [ng/mL]	EC50 (nM) measured by cAMP assay [3] [nM]	Molecule	half life [1] [h]	apparent molecular weight [4]	AUC(0-t) [5] [ng·h/mL]	AUCinf [5] [ng·h/mL]	CL [5] [mL/min/kg]	Cmax [5] [ng/mL]	T½ [5] [h]	V [5] [L/kg]	half life [6] [h]
–	–	GLP-1-Fc fusion protein: GLP-1-Fc fusion protein of literature reference [6] (LY2189265)	~51	–	–	–	–	–	–	–	–
5	–	TNFR2-Fc fusion protein (R&D Systems)	–	–	–	–	–	–	–	–	–
–	1.4	B1	–	larger apparent molecular weight than their genuine molecular weight	36210	37240	0.9505	2260	6.45	0.53016	–
–	1.3	B2	–	larger apparent molecular weight than their genuine molecular weight	47580	47600	0.7673	2150	7.22	0.47981	–
–	0.5	B3	–	~200 Kd	86640	86670	0.451	2640	9.10	0.35086	–
–	–	B4	–	~100 Kd	–	–	–	–	–	–	5.3
